Data on 7 molecules can be found in publication PMC12038257, “The transcription factor MdWRKY9 is involved in jasmonic acid-mediated salt stress tolerance in apple”.

First the molecules themselves.
B1: MdSOS2 W-box W2 (-149), probe 1 (dsDNA)
DNA 1: TCACAGCCACGTGAATTGAATTGACCAATTTTCCAATTCTGTTTAT
DNA 2: ATAAACAGAATTGGAAAATTGGTCAATTCAATTCACGTGGCTGTGA
B2: MdSOS2 W2 mutant probe (dsDNA)
DNA 1: B1 DNA 1 with G23T, A24C
DNA 2: B1 DNA 2 with T23G, C24A
B3: MdSOS2 W-box W3 (-303), probe 2 (dsDNA)
DNA 1: TATGAAAACTGGAACTTGGGTTGACTGAATTTACTTCTAATTTCAT
DNA 2: ATGAAATTAGAAGTAAATTCAGTCAACCCAAGTTCCAGTTTTCATA
B4: MdSOS2 W3 mutant probe (dsDNA)
DNA 1: B3 DNA 1 with G23T, A24C
DNA 2: B3 DNA 2 with T23G, C24A
B5: MdNHX1 W-box W1 (-1255) (dsDNA)
DNA 1: ATCATATTTTTACACTAAAAAGTCAATCTTGGTACTATTTATCTTA
DNA 2: TAAGATAAATAGTACCAAGATTGACTTTTTAGTGTAAAAATATGAT
B6: MdNHX1 W1 mutant probe (dsDNA)
DNA 1: B5 DNA 1 with T23G, C24A
DNA 2: B5 DNA 2 with G23T, A24C
B7: MdSOS3 W-box probe 1 (W4, -127) (dsDNA)
DNA 1: TAGTGAAGCACATCCGCTCTAGTCAAAGCAGCTACGCTCACGCGTG
DNA 2: CACGCGTGAGCGTAGCTGCTTTGACTAGAGCGGATGTGCTTCACTA

Numbering of substitutions follows the chain as printed.

In the data set the target is MdWRKY9 (Malus domestica (apple)?, UniProt D9ZJG3 1-520). The experiment in a line: EMSA; EMSA buffer, salt, pH and temperature not given (refers to earlier method, ref. 35); GST added to equalize protein in JAZ assays. The conditions noted are these: protein: recombinant; tags: His (pET32a(+)); label: 3' biotin; blunt. For orientation: Mobility shift assays separate free from complexed probe on a gel.
Sequence of MdWRKY9 (D9ZJG3 entry or part of it): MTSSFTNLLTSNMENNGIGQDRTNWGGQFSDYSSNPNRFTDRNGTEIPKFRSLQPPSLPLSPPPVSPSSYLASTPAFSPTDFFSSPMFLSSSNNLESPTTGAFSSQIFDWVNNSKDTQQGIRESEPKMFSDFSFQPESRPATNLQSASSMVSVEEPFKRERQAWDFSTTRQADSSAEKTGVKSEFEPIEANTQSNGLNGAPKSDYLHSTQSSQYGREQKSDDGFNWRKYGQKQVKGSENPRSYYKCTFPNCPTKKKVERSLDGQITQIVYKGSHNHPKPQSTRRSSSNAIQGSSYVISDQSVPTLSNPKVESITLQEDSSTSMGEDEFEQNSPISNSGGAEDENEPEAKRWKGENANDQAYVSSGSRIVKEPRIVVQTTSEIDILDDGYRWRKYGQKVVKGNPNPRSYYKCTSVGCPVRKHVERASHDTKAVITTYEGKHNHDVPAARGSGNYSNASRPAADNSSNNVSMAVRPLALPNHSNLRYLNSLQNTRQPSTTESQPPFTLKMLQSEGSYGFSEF
Consider B1, for which the binding result was “binds”. With B2 the entry was “no binding”. For the molecule B3, the binding result is “binds”. Take B4: the binding result is recorded as “no binding”.

As for B5, the binding result is recorded as “binds”. With B6 the entry was “no binding”; with B7, “no binding”.
